From patent US20160046672A1, “STAPLING eIF4E INTERACTING PEPTIDES” (AGENCY FOR SCIENCE, TECHNOLOGY AND RESEARCH, priority 2013, published 2016)
Positions of bridges follow the written chain, without caps; N, C: chain ends. Non-standard residues stand in square brackets, D forms with d. R5 = C=CCCC[C@@](C)(N)C(=O)O; S5 = C=CCCC[C@](C)(N)C(=O)O; Aib = CC(C)(N)C(=O)O

Experiments:
eIF4E [1] = target: T1, eIF4E (Homo sapiens, UniProt P06730); test: Competitive fluorescence anisotropy (FP) assay against FAM labeled tracer peptide; assay type: binding
T1 construct: made in house
Method: (§1) Apparent Kd values were determined for a variety of molecules via competitive anisotropy anisotropy experiments. Titrations were carried out with the concentrations eIF4E held constant at 200 nM, respectively and the labeled peptide at 50 nM. […] Apparent Kd values were determined by fitting the experimental data to the equations shown below:
[L]st and [L]t denote labeled ligand and total unlabeled ligand input concentrations, respectively. Kd2 is the dissociation constant of the interaction between the unlabelled ligand and the protein. […] Readings were carried out with an Envision Multilabel Reader (PerkinElmer). […] All titrations were carried out in triplicate. Curve-fitting was carried out using Prism 4.0 (GraphPad).

[2] = Circular dichroism, percent α-helicity in solution; assay type: physicochemical; conditions: CD, 5 mM sodium phosphate buffer pH 7.0
Method: CD was measured on a JASCO J-810 spectropolarimeter, and spectra were either recorded with a quartz cuvette (Helmer) with a pathlength of 0.01 cm or 0.1 cm in 5 mM sodium phosphate buffer (pH 7.0). FUV CD spectra were recorded from 260 nm to 200 nm at a peptide concentration of either 2 mg/ml or 0.5 mg/ml, respectively. The CD signal was converted into mean residue ellipticity in units of degree·cm^2·dmol^−1·residue^−1. CD spectra were recorded at a data pitch of 0.2 nm at 50 nm min^−1, a response time of 2 s, and a bandwidth of […]. Once converted to mean residue ellipticity, percent α-helicity can be calculated with equation (1) and (2): […]

circular dichroism = conditions: 5 mM sodium phosphate; pH 7.0; ns °C; 0.5 or 2 mg/mL
eIF4E [3] = target: T1, eIF4E; test: eIF4E affinity (SPR/FP, method not named); assay type: binding
Method: Apparent Kd values were determined for a variety of molecules via competitive anisotropy anisotropy experiments. Titrations were carried out with the concentrations eIF4E held constant at 200 nM, respectively and the labeled peptide at 50 nM. The competing molecules were then titrated against complex of the FAM labeled peptide and protein. Apparent Kd values were determined by fitting the experimental data to the equations shown below: […]
(§2) Six buffer blanks were first injected to equilibrate the instrument fully and then a solvent correction curve was performed followed by a further two blank injections. […] Using a flow rate of 50 μl/min, compounds were injected for 60 s and dissociation was monitored for 180 s. The data collection rate was 10 Hz. Kds were determined using the BiaEvaluation software (Biacore) and calculated kinetically from the dissociation and association phase data for each of the peptides. The kinetic data were fitted to 1:1 binding models. Each individual peptide Kd was determined from three separate titrations. Within each titration at least two concentration points were duplicated to ensure stability and robustness of the chip surface.

MDA-MB-231 cells [4] = test: Western Blot of protein levels in treated cells, FIG. 12B; assay type: cell-based; conditions: MDA-MB-231, absence or presence of 10% Fetal calf serum, 1% DMSO
Text: Actin protein is a loading control to indicate that the same amount of proteins was loaded into each well.

MDA-MB-231 cells [5] = test: Normalized luminescence / cell viability, FIG. 12A; assay type: cell-based; conditions: MDA-MB-231, increasing peptide concentration
Method: (§3) FIG. 12A is a dot plot representing normalized luminescence in MDA-MB-468 and MDA-MB-231 cells over increased concentration of staple peptides. MDA-MB-468 and MDA-MB-231 cells were lysed and a recombinant luciferase protein was added to the lysed cells.

MDA-MB-468 cells = test: Normalized luminescence / cell viability, FIG. 12A; assay type: cell-based; conditions: MDA-MB-468, increasing peptide concentration
Method: as §3

[6] = target: T2, human eukaryotic translation initiation factor 4E (eIF4E), full-length (human, UniProt P06730 2-217); test: Kd ratio from Table 2 (SPR/FP; which assay is not said; the reference is the linear template eIF4G^D5S)
T2 construct: mature; For SPR it was amine-coupled to a CM5 chip with m7GTP present in a 2:1 ratio. 'mature' is used here for full length; also called full length eIF4E

[7] = target: T2, human eukaryotic translation initiation …; test: SPR, Biacore T100, eIF4E immobilised on CM5, peptide as analyte, kinetic 1:1 fit; SPR (first value of the SPR/FP cell); weak, about 12 uM
Method: (§4) For stock peptide solutions, the compounds were dissolved in 100% DMSO to a concentration of 10 mM; further dilutions of the peptide stock solutions into DMSO and/or running buffer were performed immediately prior to analysis. Running buffer consisted of 10 mM Hepes pH 7.6, 0.15M NaCl, 1 mM DTT and 0.1% Tween20. Stock/DMSO diluted peptide solutions were diluted into 1.03× running buffer to make a peptide solution with 3% DMSO final concentration. […] Surface Plasmon resonance experiments were performed on a Biacore T100 machine.
(§5) eIF4E was immobilized on a CM5 sensor chip. The CM5 chip was conditioned with a 6 s injection of 100 mM HCL, followed by a 6 s injection of 0.1% SDS and completed with a 6 s injection of 50 mM NaOH at a flow rate of 100 μl/min. […]
as §2, with “The data collection rate was 10 Hz.” left out, “The kinetic data were fitted to 1:1 binding models.” left out, “titrations.” for “titrations. Within each titration at least two concentration points were duplicated to ensure stability and robustness of the chip surface.”

[8] = target: T2, human eukaryotic translation initiation …; test: competitive fluorescence anisotropy (FP), displacement of FAM tracer from eIF4E, apparent Kd
Method: as §1, with “below: […]” for “below:”

[9] = target: T2, human eukaryotic translation initiation …; test: Kd ratio from Table 2 (SPR/FP; which assay is not said)
[10] = target: T2, human eukaryotic translation initiation …; test: SPR, Biacore T100, eIF4E immobilised on CM5, peptide as analyte, kinetic 1:1 fit; SPR (first value of the SPR/FP cell); weak, about 9 uM
Method: as §4, §5
as §2, with “The data collection rate was 10 Hz.” left out, “The kinetic data were fitted to 1:1 binding models.” left out, “titrations.” for “titrations. Within each titration at least two concentration points were duplicated to ensure stability and robustness of the chip surface.”

[11] = target: T2, human eukaryotic translation initiation …; test: SPR, Biacore T100, eIF4E immobilised on CM5, peptide as analyte, kinetic 1:1 fit
Method: as §4
eIF4E was immobilized on a CM5 sensor chip. The CM5 chip was conditioned with a 6 s injection of 100 mM HCL, followed by a 6 s injection of 0.1% SDS and completed with a 6 s injection of 50 mM NaOH at a flow rate of 100 μl/min. […] Purified eIF4E was diluted with 10 mM sodium acetate buffer (pH 5.0) to a final concentration of 0.5 μM with m⁷ GTP present in a 2:1 ratio in order to stabilize eIF4E. The amount of eIF4E immobilized on the activated surface was controlled by altering the contact time of the protein solution and was approximately 1000 RU. After the immobilization of the protein, a 7-min injection (at 10 μl min⁻¹) of 1 M ethanolamine (pH 8.5) was used to quench excess active succinimide ester groups.
as §2, with “titrations.” for “titrations. Within each titration at least two concentration points were duplicated to ensure stability and robustness of the chip surface.”

T2 sequence (P06730 2-217): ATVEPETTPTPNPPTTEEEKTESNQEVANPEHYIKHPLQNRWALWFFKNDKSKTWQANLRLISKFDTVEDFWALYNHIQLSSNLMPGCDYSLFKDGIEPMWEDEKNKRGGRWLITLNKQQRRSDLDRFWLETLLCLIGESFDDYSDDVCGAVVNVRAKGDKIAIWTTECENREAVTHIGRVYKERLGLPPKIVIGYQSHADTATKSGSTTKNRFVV
T1 sequence (P06730 whole entry): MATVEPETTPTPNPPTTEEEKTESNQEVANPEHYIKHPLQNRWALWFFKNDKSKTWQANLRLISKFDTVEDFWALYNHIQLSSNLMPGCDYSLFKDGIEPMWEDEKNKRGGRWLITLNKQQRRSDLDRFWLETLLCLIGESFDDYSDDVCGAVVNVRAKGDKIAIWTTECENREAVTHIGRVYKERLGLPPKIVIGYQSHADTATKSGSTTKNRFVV

In the case of `CC(=O)N[C@@H](CCCCN)C(=O)N[C@@H](CCCCN)C(=O)N[C@@H](CCCNC(=N)N)C(=O)N[C@@H](Cc1ccc(O)cc1)C(=O)N[C@@H](CO)C(=O)N[C@@H](CCCNC(=N)N)C(=O)N[C@@H](CCC(=O)O)C(=O)NC(C)(C)C(=O)N[C@@H](CC(C)C)C(=O)N[C@@H](CC(C)C)C(=O)NCC(=O)NC(C)(C)C(N)=O` [TIP-02, KKRYSREXLLGX], the “displacement of the FAM labeled peptide in the competition assay” value (eIF4E [1]) is reported as “failed to displace the FAM labeled peptide”, the “Helicity (%)” value [2] is reported as 0/ % and the helicity (circular dichroism) is reported as 0%. The “affinity / binding to eIF4E (in words)” value (eIF4E [3]) was “greatly reduced affinity for eIF4E”.

In the case of `CC(=O)N[C@@H](CCCCN)C(=O)N[C@@H](CCCCN)C(=O)N[C@@H](CCCNC(=N)N)C(=O)N[C@@H](Cc1ccc(O)cc1)C(=O)N[C@@H](CO)C(=O)N[C@@H](CCCNC(=N)N)C(=O)N[C@@H](CCC(=O)O)C(=O)N[C@]1(C)CCCC=CCCC[C@@](C)(C(=O)N[C@@H](Cc2ccccc2)C(N)=O)NC(=O)[C@H](CC(C)C)NC(=O)[C@H](CC(C)C)NC1=O` [sTIP-03, KKRYSRE*LL*F], the Bcl-XL protein levels (MDA-MB-231 cells [4]) is reported as “down-regulates”, the survivin protein levels (MDA-MB-231 cells [4]) is reported as “down-regulates” and the “cell viability (normalized luminescence)” value (MDA-MB-231 cells [5]) is reported as “decreases cell viability in a dose-dependent manner”. The “cell viability (normalized luminescence)” value (MDA-MB-468 cells) was “decreases cell viability in a dose-dependent manner”, the helicity (circular dichroism) was 45% and the “fold decrease / improvement in Kd over eIF4G^D5S” value (eIF4E [3]; stronger binding) was 17 fold.

B1: sTIP-03 (peptide)
peptide: Ac-KKRYSRE[R5]LL[S5]F-NH2
modifications: staple 8-11
notes: Printed KKRYSRE*LL*F, * = staple position
In the case of B1, the “fold improvement in Kd” value [6] is reported as 17 fold.

B2: TIP-01^Tr (peptide)
peptide: Ac-KKRYSR[Aib]FLL[Aib]-NH2
SMILES: CC(=O)N[C@@H](CCCCN)C(=O)N[C@@H](CCCCN)C(=O)N[C@@H](CCCNC(=N)N)C(=O)N[C@@H](Cc1ccc(O)cc1)C(=O)N[C@@H](CO)C(=O)N[C@@H](CCCNC(=N)N)C(=O)NC(C)(C)C(=O)N[C@@H](Cc1ccccc1)C(=O)N[C@@H](CC(C)C)C(=O)N[C@@H](CC(C)C)C(=O)NC(C)(C)C(N)=O
notes: Printed KKRYSRXFLLX; TIP-01 with the C-terminal F12 removed
With B2 the Kd [7] was 12.1 µM.

B3: sTIP-01 (peptide)
peptide: Ac-KKRYSR[S5]FLL[S5]F-NH2
modifications: staple 7-11
SMILES: CC(=O)N[C@@H](CCCCN)C(=O)N[C@@H](CCCCN)C(=O)N[C@@H](CCCNC(=N)N)C(=O)N[C@@H](Cc1ccc(O)cc1)C(=O)N[C@@H](CO)C(=O)N[C@@H](CCCNC(=N)N)C(=O)N[C@@]1(C)CCCC=CCCC[C@@](C)(C(=O)N[C@@H](Cc2ccccc2)C(N)=O)NC(=O)[C@H](CC(C)C)NC(=O)[C@H](CC(C)C)NC(=O)[C@H](Cc2ccccc2)NC1=O
notes: Printed KKRYSR*FLL*F, * = staple position
In the case of B3, the Kd [8] is reported as 558 nM and the “fold increase in Kd over eIF4G^D5S” value [9] is reported as ~4.5 fold.

B4: TIP-02 (peptide)
peptide: Ac-KKRYSRE[Aib]LLG[Aib]-NH2
SMILES: CC(=O)N[C@@H](CCCCN)C(=O)N[C@@H](CCCCN)C(=O)N[C@@H](CCCNC(=N)N)C(=O)N[C@@H](Cc1ccc(O)cc1)C(=O)N[C@@H](CO)C(=O)N[C@@H](CCCNC(=N)N)C(=O)N[C@@H](CCC(=O)O)C(=O)NC(C)(C)C(=O)N[C@@H](CC(C)C)C(=O)N[C@@H](CC(C)C)C(=O)NCC(=O)NC(C)(C)C(N)=O
notes: Printed KKRYSREXLLGX, X = AIB; also called AIB derivative of sTIP-02
Work on B4 yielded a Kd [10] of 9.19 µM.

B5: TIP-01 (peptide)
peptide: Ac-KKRYSR[Aib]FLL[Aib]F-NH2
SMILES: CC(=O)N[C@@H](CCCCN)C(=O)N[C@@H](CCCCN)C(=O)N[C@@H](CCCNC(=N)N)C(=O)N[C@@H](Cc1ccc(O)cc1)C(=O)N[C@@H](CO)C(=O)N[C@@H](CCCNC(=N)N)C(=O)NC(C)(C)C(=O)N[C@@H](Cc1ccccc1)C(=O)N[C@@H](CC(C)C)C(=O)N[C@@H](CC(C)C)C(=O)NC(C)(C)C(=O)N[C@@H](Cc1ccccc1)C(N)=O
notes: Printed KKRYSRXFLLXF, X = AIB; also called diAIB derivative of sTIP-01
With B5 the Kd [11] was 59.7 nM, the Kd [8] was 52.4 nM and the “fold decrease in Kd over eIF4G^D5S” value [9] was ~2 fold.
